For assay [1], the target named is HCMV RC256 particles (human cytomegalovirus strain RC256) (human cytomegalovirus). In words: cell-based or functional assay.
Assay [2] has the same target. The experiment in a line: phage ELISA; plate coated with HCMV RC256 against a control plate coated with lysate of E. coli transfected with pET-22b; detection with HRP anti-M13.

Where only a bound is given, the exact number is not on record here.

B1: HCMV-20 scFv antibody, purified His-tag fused polypeptide expressed in E. coli (scFv)
scFv: MAQVQLQESGPGLVKPSGTLSLTCAVSGGSISSSNWWSWVRQPPGKGLEWIGEIYHSGSTNYNPSLKSRVTISVDKSKNQFSLKLSSVTAADTAVYYCAREGSYEAFDYWGQGTLVTVSSGGGGSGGGGSGGGGSNFMLTQPHSVSESPGKTVTISCTRSSGSIASNYVQWYQQRPGSAPSTVIYDDNQRPSGVPDRFSGSIDSSSNSASLTISGLKTEDEADYYCQSYDSSNHGVVFGGGTKLTVLGAA
In assay [1], B1 gave a plaque number, Test 1, 1.0 uM HCMV-20 (virus only: 152) of 92 plaques; a plaque number, Test 1, 2.0 uM HCMV-20 (virus only: 152) of 36 plaques; a plaque number, Test 1, 4.1 uM HCMV-20 (virus only: 152) of 23 plaques; a plaque number, Test 1, 8.1 uM HCMV-20 (virus only: 152) of 20 plaques. In assay [1], the plaque number, Test 1, 16.3 uM HCMV-20 (virus only: 152) stood at 15 plaques; the plaque number, Test 2, 1.0 uM HCMV-20 (virus only: 139) was determined as 93 plaques; the plaque number, Test 2, 2.0 uM HCMV-20 (virus only: 139) stood at 42 plaques; the plaque number, Test 2, 4.1 uM HCMV-20 (virus only: 139) came to 17 plaques. In assay [1], this molecule had a plaque number, Test 2, 8.1 uM HCMV-20 (virus only: 139) of 16 plaques and a plaque number, Test 2, 16.3 uM HCMV-20 (virus only: 139) of 16 plaques.

B2: HCMV-20 scFv antibody displayed on phage (positive phage clone from the mixed scFv phage display library) (scFv)
scFv: B1 scFv
B2: in assay [2], the HCMV/control (ELISA signal ratio) is over 8.

The values are drawn from patent publication US20090162378A1.
